Data on one molecule can be found in US20100150906A1 (AC IMMUNE S A, published 2010).

The target in assay [1] is T1, amyloid beta 1-42 fibers (UniProt P05067 672-713).
T1 construct: domain: amyloid beta 1-42; Many copies per fiber; also called Aβ1-42 fibers; fibrillar Aβ1-42
Description: ELISA on coated amyloid (55 µg/ml); mC2 at 0.312 ug/ml. The procedure: (§1) In order to evaluate the specificity of mC2 to different stages of polymerized amyloid protein, monomeric, polymeric soluble and fibrillic amyloid, an ELISA coated with these different stages of polymeric beta-amyloid was performed (FIG. 9). Monomers were prepared according to a modified method published by (Klein, 2002), soluble polymeric amyloid beta according to (Barghorn et al., 2005), whereas fibers were performed by incubation of amyloid (Bachem, Switzerland) with a final concentration of 1 μg/μl in Tris/HCl pH 7.4 at 37° C. for 5 days followed by a centrifugation step (10,000 rpm for 5 minutes). Then amyloid polymers were coated on an ELISA plates with a final concentration of 55 μg/ml and binding affinity ELISA by using an anti-mouse IgG monoclonal antibody (Jackson) labelled with alkaline phosphate was performed.
For orientation: An ELISA detects its analyte on a solid surface through an enzyme-linked reagent.

Assay [2] addresses T2, amyloid beta 1-42 monomers (UniProt P05067 672-713).
T2 construct: domain: amyloid beta 1-42; also called Aβ1-42 monomers; amyloid monomers
The assay is described as above. The procedure:
as §1

Assay [3] concerns the target T3, soluble polymeric amyloid beta (oligomers) (UniProt P05067 672-713).
T3 construct: domain: amyloid beta 1-42; also called amyloid oligomers; Abeta oligomer
The description is as above. As to the method:
as §1

For assay [4], the target named is T4, peptide 15 of the first library (aa 15-23 of Aβ) (also: biotinylated, position not given here).
T4 construct: also called p15-23
T4 peptide: QKLVFFAED
Kind of assay: ELISA on biotinylated peptides on streptavidin plates, antibody at 10 µg/ml. The procedure: (§2) Epitope mapping of the monoclonal antibody mACI-01-Ab7 C2 was performed by ELISA using three different peptide libraries. One library comprises a total of 33 biotinylated peptides covering the complete amino acid (aa) sequence of Aβ1-42 (produced by Mimotopes and purchased from ANAWA Trading SA), the second library contains biotinylated peptides using peptide 12 (aa12-20 of Aβ) from the first peptide library and substituting each amino acid in the sequence by an alanine (see […] below), and the third library contains biotinylated peptides 13, 14, or 15 (aa 13-21, 14-22 or 15-23 of Aβ) and substituting in each case the last amino acids to an alanine or to a glycine for aa 21 which is already an alanine (see table 5 below). A biotinylated complete Aβ1-42 peptide was used as positive control (Bachem). Epitope mapping was done according to the manufacturer's (Mimotopes) instructions. Briefly, Streptavidin coated plates (NUNC) were blocked with 0.1% BSA in PBS overnight at 4° C. After washing with PBS-0.05% Tween 20, plates were coated for 1 hour at RT with the different peptides from the library, diluted in 0.1% BSA, 0.1% Sodium Azide in PBS to a final concentration of 10 μM. After washing, plates were incubated for 1 hour at RT with the mACI-01-Ab7 C2 antibody or an isotype control mouse IgG2b antibody, diluted to 10 μg/ml in 2% BSA, 0.1% Sodium Azide in PBS. Plates were washed again and incubated with alkaline phosphatase conjugated goat anti mouse IgG for 1 h at RT.

Assay [5] concerns the target T5, peptide 14 of the first library (aa 14-22 of Aβ) (also: biotinylated, position not given here).
T5 construct: also called p14-22
T5 peptide: HQKLVFFAE
Described as above. As to the method:
as §2

For assay [6], the target named is T6, peptide 13 of the first library (aa 13-21 of Aβ) (also: biotinylated, position not given here).
T6 construct: also called p13-21; Amyloid beta 13-21
T6 peptide: HHQKLVFFA
Described as above. As to the method: as §2

Assay [7] addresses T7, peptide 12 of the first library (aa 12-20 of Aβ) (also: biotinylated, position not given here).
T7 construct: also called p12-20; Aβ12-20
T7 peptide: VHHQKLVFF
The assay is described as above. As to the method: as §2

Assay [8] concerns the target T8, biotinylated complete Aβ1-42 peptide (Bachem) (UniProt P05067 672-713, biotinylated (position not given)).
T8 construct: domain: amyloid beta 1-42; also called Amyloid beta 1-42; whole Aβ1-42 protein
Kind of assay: SPR (Biacore X), biotinylated monomeric Aβ1-42 on SA chip, 1:1 fit. The procedure:
(§3) The interactions between AC immune's lead antibody mACI-01-Ab7 C2 (mC2) with amyloid peptide Aβ₁₋₄₂ was studies using surface plasmon resonance. The binding of the mouse antibody mACI-01-Ab7 C2 to either monomers or fibers of Aβ₁₋₄₂ were determined.
(§4) All SPR experiments were carried out on a Biacore X instrument (Biacore AB). Reagents for immobilization (EDC, NHS and ethanolamine), sensor chips CM5 and SA as well as running and sample buffer HBS-EP were purchased from Biacore AB. Sodium acetate (10 mM, pH 5.0) was used as coupling buffer to increase coupling yield. Fibrillar Aβ₁₋₄₂ (BAchem) was prepared by adding PBS buffer to Aβ₁₋₄₂ to a final concentration of 3 mg/ml and leaving the vials at 37° C. for 7 days. Fibrillar Aβ₁₋₄₂ was coupled to a CM5 sensor chip containing a surface-bound carboxymethyl dextran matrix. Biotinylated monomeric Aβ₁₋₄₂ (Bachem) was coupled to a Sensor chip SA consisting of carboxymethyl dextran matrix with covalently attached Streptavidin. Typically four or five concentrations of mAb were assayed by serial dilutions using running buffer. Injections were performed starting from the lowest concentration and were passed over both fc 1 and 2 at a flow rate of 30 μL'min for 3 min. Flow cell 2 was underivatised and responses were subtracted from fc 1 to correct for instrument noise and bulk refractive changes. After injection was finished, the surfaces were washed immediately with running buffer for 5 min. To remove remaining bound antibody from the Aβ₁₋₄₂ fibrils, surface regeneration was performed by injecting pulses of 10 mM NaOH. Kinetic analysis was performed using algorithms for numerical integration and global analysis using BIAevaluation 3.0. The curves obtained for injections of analyte at different concentrations were overlaid and the baselines adjusted to zero. For curve fitting, all data were fit simultaneously to a 1:1 homogeneous complex.
(SPR reads the build-up and loss of mass on a sensor chip optically.)

Assay [9] addresses T8, biotinylated complete Aβ1-42 peptide …. Kind of assay: SPR (Biacore X), biotinylated monomeric Aβ1-42 on SA chip, average of experiments. As to the method: as §3, §4
For assay [10], the target named is T1, amyloid beta 1-42 fibers. Kind of assay: SPR (Biacore X), fibrillar Aβ1-42 on CM5 chip, average of experiments. As to the method: as §3, §4

“And” between values parts separate entries of the source, which are not always exact repeats. Equal values may be shown once. No end group written: not given here.

T8 sequence (P05067 672-713 limits assumed): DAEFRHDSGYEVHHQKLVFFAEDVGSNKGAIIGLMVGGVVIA
T1 sequence (P05067 672-713 limits assumed): as above
T3 sequence (P05067 672-713 limits assumed): as above
T2 sequence (P05067 672-713 limits assumed): as above

B1: mouse monoclonal antibody ACI-01-Ab7C2 (antibody, V domains shown)
VH: EVQLVESGGGLVQPGGSLKLSCAASGFTFSSYGMSWVRQTPDKRLELVASINSNGGSTYYPDSVKGRFTISRDNAKNTLYLQMSSLKSEDTAMYYCASGDYWGQGSTLTVSS
VL: DVVMTQTPLSLPVSLGDQASISCRSSQSLVYSNGDTYLHWYLQKPGQSPKLLIYKVSNRFSGVPDRFSGSGSGTDFTLKISRVEAEDLGVYFCSQSTHVPWTFGGGTKLEIK
notes: also called mC2; mACI-01-Ab7 C2
In the case of B1, the O.D was 0.989 O.D in assay [1], 0.649 O.D in assay [2] and 1.72 O.D in assay [3]. In addition, the binding result in assay [4], in [5], in assay [6] and in assay [7] was “binds” each time. For the same molecule, the Kd in [8] is 150 nM and 350 nM; in assay [9] it was 250 nM; in assay [10] it was 35 nM. Also, the off-rate (koff) was 0.0027 s⁻¹ and 0.0053 s⁻¹ in assay [8]; 0.004 s⁻¹ in assay [9]; 0.0011 s⁻¹ in assay [10]. For the same molecule, the kon in assay [8] is 18000 M⁻¹ s⁻¹ and 15000 M⁻¹ s⁻¹; in [9], 16000 M⁻¹ s⁻¹; in [10] it was 38000 M⁻¹ s⁻¹.

The term Kd denotes the equilibrium constant for the complex coming apart. A higher Kd goes with lower affinity. By koff is commonly meant the rate constant with which the complex falls apart. By kon is commonly meant the second-order rate constant of association. A higher kon goes with fast association.
